Laboratory results published in patent US20230181756A1 (Novartis, published 2023).
Changes are numbered by the printed parent chain. Names and notes keep the numbering of the source.

Assays:
human CCR7 [1] = target: T1, human CCR7 (human, UniProt P32248 25-378); assay: FACS titration, NIH3T3 cells expressing human CCR7
T1 construct: The assay field tells which; also called hCCR7; NIH3T3.hCCR7
T1 sequence: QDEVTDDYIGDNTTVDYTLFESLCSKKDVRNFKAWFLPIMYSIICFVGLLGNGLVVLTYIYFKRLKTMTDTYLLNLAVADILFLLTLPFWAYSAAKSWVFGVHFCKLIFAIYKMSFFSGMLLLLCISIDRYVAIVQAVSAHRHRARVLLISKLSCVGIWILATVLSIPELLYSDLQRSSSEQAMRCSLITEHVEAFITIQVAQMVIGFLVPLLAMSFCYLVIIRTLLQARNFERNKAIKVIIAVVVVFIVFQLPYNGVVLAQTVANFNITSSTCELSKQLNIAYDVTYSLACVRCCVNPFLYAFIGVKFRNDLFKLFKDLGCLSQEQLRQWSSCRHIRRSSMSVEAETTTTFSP

human CCR7 [2] = target: T1, human CCR7; assay: cell-based or functional assay
rat CCR7 [3] = target: T2, rat CCR7 (rat, UniProt P47774 25-378 (mouse entry)); assay: FACS titration, NIH3T3 cells expressing rat CCR7
T2 construct: also called NIH3T3.rat CCR7
T2 chain: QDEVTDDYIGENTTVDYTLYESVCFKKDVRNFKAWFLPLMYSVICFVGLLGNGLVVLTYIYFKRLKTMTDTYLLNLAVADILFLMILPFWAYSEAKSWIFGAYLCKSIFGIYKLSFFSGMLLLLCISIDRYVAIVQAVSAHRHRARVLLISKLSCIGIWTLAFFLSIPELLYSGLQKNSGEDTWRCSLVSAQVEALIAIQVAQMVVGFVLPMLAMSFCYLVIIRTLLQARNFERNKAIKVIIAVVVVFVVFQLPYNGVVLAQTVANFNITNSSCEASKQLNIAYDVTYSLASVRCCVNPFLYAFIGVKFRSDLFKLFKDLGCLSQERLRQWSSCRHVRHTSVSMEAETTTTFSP

mouse CCR7 [4] = target: T3, mouse CCR7 (mouse, UniProt P47774 25-378); assay: FACS titration, CD-1 mouse CD4+ T cells
T3 construct: also called NIH3T3.mouse CCR7
T3 sequence: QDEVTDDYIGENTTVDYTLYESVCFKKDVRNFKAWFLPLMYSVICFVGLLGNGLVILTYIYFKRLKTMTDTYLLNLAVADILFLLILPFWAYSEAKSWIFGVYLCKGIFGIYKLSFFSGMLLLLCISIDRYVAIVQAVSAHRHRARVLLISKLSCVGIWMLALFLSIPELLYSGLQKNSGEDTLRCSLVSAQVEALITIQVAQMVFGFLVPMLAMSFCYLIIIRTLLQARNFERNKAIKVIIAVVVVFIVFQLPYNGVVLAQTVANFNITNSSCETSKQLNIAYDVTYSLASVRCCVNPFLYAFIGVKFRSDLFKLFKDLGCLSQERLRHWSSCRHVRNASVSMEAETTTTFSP

mouse CCR7 [5] = target: T3, mouse CCR7; assay: FACS titration, NIH3T3 cells expressing mouse CCR7
cynomolgus monkey CCR7 [6] = target: T4, cynomolgus monkey CCR7 (cynomolgus monkey, UniProt P32248 25-378 (human entry)); assay: FACS titration, cynomolgus CD4+ T cells
T4 construct: also called Cyno CCR7; NIH3T3.cyno CCR7
T4 sequence: T1 sequence with D174G

cynomolgus monkey CCR7 [7] = target: T4, cynomolgus monkey CCR7; assay: FACS titration, NIH3T3 cells expressing cyno CCR7
human CCR7 [8] = target: T1, human CCR7; assay: FACS titration, human CD4+ T cells from PBMC
human CCR7 [9] = target: T1, human CCR7; assay: FACS titration, Jeko-1 cancer cells (CCR7+)
rat CCR7 [10] = target: T2, rat CCR7; assay: FACS titration, Wistar rat CD4+ T cells
human CCR7 [11] = target: T1, human CCR7; assay: FACS titration, NIH3T3 cells expressing human CCR7; remark: listed apart in the source
human CCR7 [12] = target: T1, human CCR7; assay: ELISA on CCR7-expressing VLPs, pH 5.8 buffer
human CCR7 [13] = target: T1, human CCR7; assay: FACS titration, human CD4+ T cells from PBMC; remark: listed apart in the source
cynomolgus monkey CCR7 [14] = target: T4, cynomolgus monkey CCR7; assay: FACS titration, NIH3T3 cells expressing cyno CCR7; remark: listed apart in the source
human CCR7 [15] = target: T1, human CCR7; assay: ELISA on CCR7-expressing VLPs, pH 7.4 buffer
CCR9 = target: T5, CCR9 (UniProt P51686 1-369, limits assumed); assay: FACS on PF382 cells (CCR7-/CCR9+/CCR6+)
T5 construct: whole, on cells; also called PF382 cells (CCR7-/CCR9+/CCR6+)
T5 sequence (looked up): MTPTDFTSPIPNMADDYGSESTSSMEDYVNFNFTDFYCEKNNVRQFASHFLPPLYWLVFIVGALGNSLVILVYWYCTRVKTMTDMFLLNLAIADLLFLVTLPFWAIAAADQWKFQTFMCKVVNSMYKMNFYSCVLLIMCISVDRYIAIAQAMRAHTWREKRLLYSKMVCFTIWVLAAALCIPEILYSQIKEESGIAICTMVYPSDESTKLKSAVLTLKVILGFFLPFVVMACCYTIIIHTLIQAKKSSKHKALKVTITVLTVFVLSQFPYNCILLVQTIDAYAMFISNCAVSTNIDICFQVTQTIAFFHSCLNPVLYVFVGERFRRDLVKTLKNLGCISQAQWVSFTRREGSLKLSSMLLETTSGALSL

CCR6 = target: T6, CCR6 (UniProt P51684 1-374, limits assumed); assay: FACS on PF382 cells (CCR7-/CCR9+/CCR6+)
T6 construct: whole, on cells; also called PF382 cells (CCR7-/CCR9+/CCR6+)
T6 sequence (looked up): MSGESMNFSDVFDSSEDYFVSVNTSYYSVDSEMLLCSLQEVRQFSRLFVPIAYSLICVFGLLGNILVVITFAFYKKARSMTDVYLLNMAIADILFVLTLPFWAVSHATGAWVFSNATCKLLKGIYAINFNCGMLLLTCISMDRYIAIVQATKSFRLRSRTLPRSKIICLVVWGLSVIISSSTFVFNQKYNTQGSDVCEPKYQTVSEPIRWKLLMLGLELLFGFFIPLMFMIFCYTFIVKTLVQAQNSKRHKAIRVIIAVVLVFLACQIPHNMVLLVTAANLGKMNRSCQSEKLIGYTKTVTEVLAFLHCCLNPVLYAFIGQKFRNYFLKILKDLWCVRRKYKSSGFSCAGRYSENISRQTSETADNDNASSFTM

cynomolgus monkey CCR7 [16] = target: T4, cynomolgus monkey CCR7; assay: FACS titration, cynomolgus CD4+ T cells; remark: listed apart in the source
human CCR7 [17] = target: T1, human CCR7; assay: FACS titration, DEL cells (CCR7 receptor levels >=100,000)
CXCR4 = target: T7, CXCR4 (UniProt P61073 1-352, limits assumed); assay: FACS on HEK293-CXCR4 cells
T7 construct: whole, on cells; also called HEK293-CXCR4

CCR8 = target: T8, CCR8 (UniProt P51685 1-355, limits assumed); assay: FACS on CHO-CCR8 cells
T8 construct: whole, on cells; also called CHO-CCR8
T8 sequence (P51685 whole entry): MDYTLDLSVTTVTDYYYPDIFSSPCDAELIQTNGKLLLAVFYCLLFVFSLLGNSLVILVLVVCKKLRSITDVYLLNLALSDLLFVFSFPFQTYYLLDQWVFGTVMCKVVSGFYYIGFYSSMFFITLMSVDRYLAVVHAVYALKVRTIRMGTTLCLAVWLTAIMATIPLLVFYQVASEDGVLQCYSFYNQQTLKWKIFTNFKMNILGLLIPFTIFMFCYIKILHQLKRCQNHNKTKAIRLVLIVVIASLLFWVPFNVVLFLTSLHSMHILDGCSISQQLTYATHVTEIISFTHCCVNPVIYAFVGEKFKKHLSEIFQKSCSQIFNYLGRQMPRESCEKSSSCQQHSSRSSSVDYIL

T7 sequence (P61073 whole entry): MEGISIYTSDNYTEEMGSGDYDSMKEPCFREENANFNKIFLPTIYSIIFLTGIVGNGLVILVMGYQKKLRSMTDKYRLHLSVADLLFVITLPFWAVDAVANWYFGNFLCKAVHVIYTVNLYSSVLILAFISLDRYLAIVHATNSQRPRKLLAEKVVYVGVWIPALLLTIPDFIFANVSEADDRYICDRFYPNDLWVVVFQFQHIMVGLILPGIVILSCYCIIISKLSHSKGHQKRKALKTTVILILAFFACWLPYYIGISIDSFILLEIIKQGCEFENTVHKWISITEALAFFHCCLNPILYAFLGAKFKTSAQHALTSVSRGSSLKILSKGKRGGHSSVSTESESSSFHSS

B1: 121G12 non-humanized CysMab (antibody, human IgG1, kappa, V domains shown)
VH: EVQLVESGGGLVKPGGSLKLSCAASGFTFSTYAMSWVRQTPEKRLEWVATISDGGSYSYYPDNVKGRFTISRDNAKNNLYLQMSHLKSEDTAMYYCARRGSRYEEYYVMDYWGQGTSVTVSS
VL: DIVLTQSPATLSVTPGDSVSLSCRASQSISNNLHWYQQKSHESPKLLIKYASQSISGIPSRFSGSGSGTDFTLSINSVETEDFGMYFCQQSNSWLTFGAGTKLGLKR
notes: Chimeric: murine variable regions on human IgG1 kappa with CysMab cysteines (E152C, S375C) and wild type Fc; also called Parental 121G12 hIgG1 CysMab; Non-humanized CysMab antibody 121G12
B1 was tested. Which EC50 (human CCR7 [1]) did it give?
Its EC50 is 1.3 nM.

And the “ADCC activity; IC50 (nM); reporter assay, JVM2 targets and Jurkat-V158 effectors” value (human CCR7 [2])?
Its value is 0.077 nM.

And the EC50 (rat CCR7 [3])?
Its EC50 is 2.4 nM.

And the EC50 (mouse CCR7 [4])?
The EC50 was 48 to 51 nM.

And the EC50 (mouse CCR7 [5])?
Its EC50 is 2.5 nM.

And the EC50 (cynomolgus monkey CCR7 [6])?
Its EC50 is 5.8 to 12 nM.

What about the EC50 (cynomolgus monkey CCR7 [7]) of the same binder?
The EC50 was 1.3 nM.

And the EC50 (human CCR7 [8])?
The EC50 was 22 to 30 nM.

What about the EC50 (human CCR7 [9]) of the same binder?
Its EC50 is 1.5 nM.

What about the EC50 (rat CCR7 [10]) of the same binder?
Its EC50 is 18 to 31 nM.

B2: 121G12 humanized CysMab (Fc Wild Type) (antibody, V domains shown)
VH: EVQLVESGGGLVKPGGSLRLSCAASGFTFSTYAMSWVRQAPGKGLEWVATISDAGSYSYYPDNVKGRFTISRDNAKNSLYLQMNSLRAEDTAVYYCARRGSRYEEYYVMDYWGQGTTVTVSS
VL: EIVLTQSPATLSVSPGERVTLSCRASQSISNNLHWYQQKPGQAPRLLIKYASQSISGIPARFSGSGSGTDFTLTISSVEPEDFGVYFCQQSSSWLTFGQGTKLEIK
notes: Human IgG1 kappa with CysMab cysteines (E152C, S375C); also called Humanized CysMab antibody 121G12; 121G12.CysMab.DAR4 unconjugated (assigned)
B2 was tested. Which EC50 (human CCR7 [11]) did it give?
Its EC50 is 1 nM.

And the Kd (human CCR7 [12])?
The Kd was 0.521 nM.

And the EC50 (human CCR7 [13])?
The EC50 was 30 to 34 nM.

What about the EC50 (cynomolgus monkey CCR7 [14]) of the same binder?
Its EC50 is 0.9 nM.

And the Kd (human CCR7 [15])?
Its Kd is 0.141 nM.

Does B2 bind (CCR9)?
Result: no binding (tested: 5 ug/ml)

Does B2 bind (CCR6)?
Result: no binding (tested: 5 ug/ml)

And the EC50 (cynomolgus monkey CCR7 [16])?
The EC50 was 12 nM.

What about the EC50 (human CCR7 [17]) of the same binder?
The EC50 was 5.24 nM.

Does B2 bind (CXCR4)?
Result: no binding (tested: 5 ug/ml)

Does B2 bind (CCR8)?
Result: no binding (tested: 5 ug/ml)
